Data on 13 molecules can be found in patent US20250154268A1 (NONA BIOSCIENCES SUZHOU, published 2025).

Test [1] deals with T1, human CD25 (human, UniProt P01589 22-272).
T1 construct: whole, on cells; Always presented on cells; also called huCD25; IL2Rα
T1 sequence (looked up): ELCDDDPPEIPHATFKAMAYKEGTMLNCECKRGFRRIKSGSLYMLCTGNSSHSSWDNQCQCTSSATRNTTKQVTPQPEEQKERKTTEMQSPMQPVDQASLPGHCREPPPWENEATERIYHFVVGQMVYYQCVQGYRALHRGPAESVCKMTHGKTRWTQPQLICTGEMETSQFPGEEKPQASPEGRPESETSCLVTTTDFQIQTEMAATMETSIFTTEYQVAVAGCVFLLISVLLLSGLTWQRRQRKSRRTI
Nature of the test: flow cytometry, Karpas299 cells.
Method: (§1) Briefly, the CHOK1-huCD25 cells and HEK293-cynoCD25 cells were digested, the SU-DHL-1 cells, Karpas299 cells, Treg cells and Teff cells were collected, and the cells were resuspended in PBS containing 2% BSA. The cells were adjusted to a cell density of 1×10⁶ cells/mL, respectively. […] The cells were incubated at 4° C. for 1 hour in the dark. After the incubation, the cells were rinsed twice by adding pre-chilled PBS containing 2% BSA at 100 μL/well, and centrifuged at 500 g at 4° C. for 5 minutes, and the supernatant was discarded. […] The cells were washed twice by adding pre-chilled PBS containing 2% BSA at 100 μL/well, and centrifuged at 500 g at 4° C. for 5 minutes, and the supernatant was discarded. Finally, the cells were resuspended in pre-chilled PBS containing 2% BSA at 200 μL/well, and the fluorescence signal values were read using a BD CantoII flow cytometer.

Test [2] has as its target T1, human CD25. Nature of the test: flow cytometry, SU-DHL-1 cells. Background: A flow cytometer gives signals particle by particle.
Method: as §1
Test [3] has as its target T2, cynomolgus monkey CD25 (cynomolgus monkey, UniProt H6WS54 22-272).
T2 construct: whole, on cells; also called cynoCD25
T2 sequence: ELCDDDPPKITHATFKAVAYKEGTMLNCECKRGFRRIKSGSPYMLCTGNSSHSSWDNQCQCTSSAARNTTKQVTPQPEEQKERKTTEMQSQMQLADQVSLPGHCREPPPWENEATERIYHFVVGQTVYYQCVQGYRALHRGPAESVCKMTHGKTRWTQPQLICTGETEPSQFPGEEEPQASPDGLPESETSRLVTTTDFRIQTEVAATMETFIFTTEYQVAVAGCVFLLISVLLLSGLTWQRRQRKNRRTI
Put plainly: flow cytometry, HEK293-cynoCD25 cells.
Method: as §1

The target in test [4] is T2, cynomolgus monkey CD25. Put plainly: flow cytometry, HEK293-cynoCD25 cells. This is another data set of the same source.
Method: as §1
Test [5] has as its target T1, human CD25. Put plainly: flow cytometry, CHOK1-huCD25 cells.
Method: as §1
The target in test [6] is T1, human CD25. Put plainly: flow cytometry, SU-DHL-1 cells. This is another data set of the same source.
Method: as §1
In test [7] the target is T1, human CD25. Put plainly: flow cytometry, Karpas299 cells. This is another data set of the same source.
Method: as §1
In test [8] the target is T1, human CD25. Nature of the test: flow cytometry, SU-DHL-1 cells. This is another data set of the same source.
Method: as §1
Test [9] has as its target T1, human CD25. Put plainly: flow cytometry, Karpas299 cells. This is another data set of the same source.
Test [10] concerns the target T2, cynomolgus monkey CD25. Put plainly: flow cytometry, HEK293-cynoCD25 cells. The source holds these as a separate data set.
Method: as §1
The target of test [11] is T1, human CD25. Put plainly: flow cytometry, SU-DHL-1 cells. This is another data set of the same source.
Method: as §1
The target in test [12] is T1, human CD25. Put plainly: flow cytometry, Karpas299 cells. This is another data set of the same source.

Read-outs that look alike come from different tables or passages of the source.

B1: PR006927 (antibody, human IgG1, kappa, V domains shown)
VH: QVQLQESGPGLVKPSETLSLTCTVSGGSIRSYYWSWIRQPPGKGLEWIGYIYYSGSTNYNPSLKSRVTISVDTSKNQFSLKLSSVTAADTAVYYCARDILTGYSDWFFDLWGRGTLVTVSS
VL: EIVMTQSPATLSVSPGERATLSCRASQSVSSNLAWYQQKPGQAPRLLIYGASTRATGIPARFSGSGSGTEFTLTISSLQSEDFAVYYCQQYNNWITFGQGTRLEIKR
notes: Fully human recombinant IgG1, kappa; also called 113D5A1
As to B1, the EC50 in test [1] was 20.3 nM; in test [2], 4.68 nM; in [3] it was 17.5 nM. Moreover, the “Maximum MFI” value in test [1] is 10000 MFI; in test [2] it was 27300 MFI; in test [3], 90100 MFI.

B2: PR005433 (antibody, human IgG1, kappa, V domains shown)
VH: EVQLLESGGGLVQPGGSLRLSCAASGFTFSSYAMSWVRQAPGKGLEWVSTLSGRGGSTYYADSVKGRFTISRDNSNNTLYLQMNSLRAEDTAVYYCAKEGYSSSYYEYFQHWGQGTLVTVSS
VL: EIVLTQSPATLSVSPGERATLSCRASQSISSNLAWYQQKPGQAPRLLIYGASTRATGIPARFSGSGSGTEFTLTISSLQSEDFAVYSCQQYNYWPLTFGGGTKVEIKR
notes: Fully human recombinant IgG1, kappa; Clone No. 308B6F9 is printed for both PR005433 and PR005435; also called 308B6F9
On to B2, for which the EC50 is 3.73 nM in test [4], 8.19 nM in test [5], 4.9 nM in test [6] and 4.31 nM in test [7]. For the same molecule, the “Maximum MFI” value in test [4] is 60500 MFI; in test [5], 22400 MFI; in [6], 44300 MFI; in test [7] it was 24900 MFI.

B3: PR005435 (antibody, human IgG1, kappa, V domains shown)
VH: QVQLQQSGPGLVKPSQTLSLTCAVSGDRVSNINAAWNWIRQSPSRGLEWLGRTYYRSKWYNDYAVSVKSRISINLDTSKDQFSLQLNPVTPEDTAVYYCARDPWEAFDYWGQGTLVTVSS
VL: EIVMTQSPATLSVSPGERATLSCRASQSVSSNLAWYQQKPGQAPRLLIYAASTRATGIPARFSGSGSGTEFTLTISSLQSEDFAVYFCQQYNDWSITFGQGTRLEIKR
notes: as for B2
Take B3: the EC50 in test [4] was found to be 4.15 nM; in test [5], 15.2 nM; in [6], 97.6 nM; in [7], 65.4 nM. The “Maximum MFI” value was 154000 MFI in test [4], 31700 MFI in test [5], 19500 MFI in [6] and 16200 MFI in test [7].

B4: PR006930 (antibody, human IgG1, kappa, V domains shown)
VH: EVQLLESGGGLVQPGGSLRLSCAASEFTFSSYAMSWVRQAPGKGLEWVSTISGSGGNTYYADSVEGRFTISRDNSKNTLYLQMNSLRAEDTAVYYCAKEAYSSSWYEYFQHWGQGTLVTVSS
VL: EIVMTQSPATLSVSPGERATLSCRASQSVSDTLAWYQQKPGQAPRLLIYGASTRATGIPARFSGSGSGTEFTLTISSLQSEDFAVYYCQQYNYWPLTFGGGTKVEIRR
notes: Fully human recombinant IgG1, kappa; also called 170H1E12
On to B4, for which the values for the EC50 in test [1], in test [2] and in [3] were 2.12 nM, 2.2 nM and 3.25 nM, respectively. Also, the “Maximum MFI” value in test [1] was determined as 16400 MFI; in test [2], 32000 MFI; in test [3], 146000 MFI.

B5: PR006932 (antibody, human IgG1, kappa, V domains shown)
VH: QVQLVQSGAEVKKPGASLKVSCKASGYTFTGYYMHWVRQAPGQGLEWMGWINSNSGDKRYAQKFQGRVTVTRDTSISTAYMELSRLRSDDTAVYYCAREGAGDAFDFWGQGTMVIVSS
VL: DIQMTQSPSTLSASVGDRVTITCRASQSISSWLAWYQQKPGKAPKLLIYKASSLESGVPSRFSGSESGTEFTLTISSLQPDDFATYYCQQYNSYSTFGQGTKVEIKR
notes: Fully human recombinant IgG1, kappa; also called 184B11A4
In the case of B5, the 50% effective concentration (EC50) turned out to be 2.91 nM in test [1], 3.51 nM in test [2] and 3.92 nM in [3]. Besides, the “Maximum MFI” value was found to be 12000 MFI in test [1], 34400 MFI in [2] and 151000 MFI in test [3].

B6: PR006769 (antibody, human IgG1, kappa, V domains shown)
VH: QVQLQGSGPGLVKPSGTLSLTCAVSPGSISSSNWWNWVRQPPGKGLEWIGEIYHRGSTNYNPSLKSRVTISVDKSKNQFSLKLSSVTAADTAVYYCTHYYYDSSGYYYGYWGQGTLVTVSS
VL: DIVMTQSPLSLPVTPGEPASISCRSSQSLLHRDVYNYVDWYLQKPGQSPQLLIYLGSNRASGVPDRFSGSGSGTDFTLKISRVEAEDVGVYYCMQALQTPLTFGGGTKVEIKR
notes: PTM variant of PR005436 (VH:D26P); human IgG1
Regarding B6, the EC50 in test [8] came to 2.94 nM; in test [9], 39.3 nM; in [10], 3.53 nM. Moreover, the “Maximum MFI” value in test [8] was 32200 MFI; in test [9], 16800 MFI; in test [10], 132000 MFI.

B7: PR005436 (antibody, human IgG1, kappa, V domains shown)
VH: QVQLQGSGPGLVKPSGTLSLTCAVSDGSISSSNWWNWVRQPPGKGLEWIGEIYHRGSTNYNPSLKSRVTISVDKSKNQFSLKLSSVTAADTAVYYCTHYYYDSSGYYYGYWGQGTLVTVSS
VL: DIVMTQSPLSLPVTPGEPASISCRSSQSLLHRDGYNYVDWYLQKPGQSPQLLIYLGSNRASGVPDRFSGSGSGTDFTLKISRVEAEDVGVYYCMQALQTPLTFGGGTKVEIKR
notes: Fully human recombinant IgG1, kappa; also called 310D11F6
Take B7: the half-maximal effective concentration (EC50) in test [4] is 1.75 nM; in test [5], 0.86 nM; in [6], 1.4 nM; in [7] it was 67.2 nM. The “Maximum MFI” value in test [4] stood at 189000 MFI; in test [5], 49200 MFI; in test [6], 33300 MFI; in test [7], 32100 MFI.

B8: PR006771 (antibody, human IgG1, kappa, V domains shown)
VH: QVQLQGSGPGLVKPSGTLSLTCAVSPGSISSSNWWNWVRQPPGKGLEWIGEIYHRGSTNYNPSLKSRVTISVDKSKNQFSLKLSSVTAADTAVYYCTHYYYDSSGYYYGYWGQGTLVTVSS
VL: DIVMTQSPLSLPVTPGEPASISCRSSQSLLHRRGYNYVDWYLQKPGQSPQLLIYLGSNRASGVPDRFSGSGSGTDFTLKISRVEAEDVGVYYCMQALQTPLTFGGGTKVEIKR
notes: as for B6
On to B8, for which the EC50 in test [8] came out at 4.56 nM; in test [9], 40 nM; in test [10], 5.35 nM. Further, the “Maximum MFI” value in test [8] was 29800 MFI; in test [9], 8970 MFI; in [10], 136000 MFI.

B9: PR006931 (antibody, human IgG1, kappa, V domains shown)
VH: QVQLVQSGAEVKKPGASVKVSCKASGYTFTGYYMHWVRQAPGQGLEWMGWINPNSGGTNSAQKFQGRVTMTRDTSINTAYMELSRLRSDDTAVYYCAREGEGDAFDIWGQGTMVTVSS
VL: DFQMTQSPSTLSASVGDRVTITCRASQSISSWLAWYQQKPGKAPKLLIYEASSLKSGVPSRFSGSESGTEFTLTISSLQPDDFATYYCHQYNSYSTFGQGTKVEIKR
notes: Fully human recombinant IgG1, kappa; also called 171B2D12
Take B9: the EC50 was found to be 40 nM in test [1], 8.48 nM in test [2] and 6.25 nM in test [3]. Also, the “Maximum MFI” value in test [1] amounted to 9450 MFI; in test [2], 33700 MFI; in [3], 152000 MFI.

B10: PR006984 (antibody, human IgG1, kappa, V domains shown)
VH: QVHLVESGGGVVQPGRSLRLSCAASGFTFSKYDMHWVRQAPGKGLEWVAVVWFDGINKSYIDSVRGRFTISRDNSKSTLYLQMNSLRDDDTAVYYCAREGVGDAFDIWGQGAMVTVSS
VL: DIQMTQSPSTLSASVGDRVTITCRASQSISSWLAWYQQKPGKAPKLLIYKASSLESGVPSRFSGSESGTEFTLTITSLQPNDFATYYCQQYNSYSTFGQGTRLEIKR
notes: Fully human recombinant IgG1, kappa; also called 180F6E8
Regarding B10, the EC50 in [11] was determined as 6 nM; in [12], 55 nM. Further, the results for the “Maximum MFI” value in test [11] and in [12] were 35300 MFI and 8720 MFI, respectively.

B11: PR006928 (antibody, human IgG1, kappa, V domains shown)
VH: QVQLVQSGGGVVQPGRSLRLSCAASGFTFSNYDMHWVRQAPGKGLEWVAVIWYDGINKHYTDSVKGRFTMSRDNFKNTLHLQMNSLRAEDTAIYYCAREGAGDAFDIWGQGTMVTVSS
VL: DIQMTQSPSTLSASVGDRVTITCRASQSFDNWLAWYQQKPGKAPKLLIYKASSLESGVPSRFSGSGSGTEFTLTISSLQPDDFATYYCQQYNSYSTFGQGTRLEIKR
notes: Fully human recombinant IgG1, kappa; also called 150G7E2
As for B11, in test [11], the EC50 was found to be 1.85 nM and the “Maximum MFI” value came to 34700 MFI. For the same molecule, in test [12], the EC50 was 20 nM and the “Maximum MFI” value was 10600 MFI.

B12: PR006122 (antibody, human IgG1, kappa, V domains shown)
VH: QVQLVESGGGVVQPGRSLRLSCAASGFTFSSYYMHWVRQAPGKGLEWVAVIWYDGSNKYYADSVKGRFTISRDNSKNTLYLQMNSLRAEDTAVYYCAGAGKGELPFDYWGQGTLVTVSS
VL: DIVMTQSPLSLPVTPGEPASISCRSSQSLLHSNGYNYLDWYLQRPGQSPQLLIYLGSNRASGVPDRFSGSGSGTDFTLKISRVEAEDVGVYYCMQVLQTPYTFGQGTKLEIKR
notes: Fully human recombinant IgG1, kappa; also called 189F2G11
On to B12, for which the EC50 came out at 1.21 nM in [1], 1.53 nM in [2] and 1.63 nM in test [3]. Moreover, the entries for the “Maximum MFI” value in test [1], in [2] and in [3] were 18300 MFI, 43900 MFI and 82000 MFI, respectively.

B13: PR007181 (antibody, human IgG1, kappa, V domains shown)
VH: QVQLQESGPGLVKPSGTLSLTCAVSGGSISSSNWWSWVRQSPGKGLEWIGEIYHSGSTNYNPSLKSRVTISVDKSKNQFSLKLSSVTAADTAVYYCARDRLVAVAGIFDYWGQGTLVTVSS
VL: EIVMTQSPATLSVSPGERATFSCRASQTVSSDLAWYQQKPGQAPRLLIYGASTRATGIPARFSGSGSGTEFTLTISSLQSEDFAFYYCQQSNDWPYTFGQGTKLEIKR
notes: Fully human recombinant IgG1, kappa; also called 111C1D7
On to B13, for which the EC50 in test [11] turned out to be 1.68 nM; in [12] it was 5.81 nM. In addition, the “Maximum MFI” value was determined as 32500 MFI in test [11] and 10200 MFI in [12].

As usually defined, the EC50 is the midpoint of the concentration-response curve.
